Measured values published in PMC6793942, “The Ps and Qs of alarmone synthesis in Staphylococcus aureus” (PLoS ONE, 2019).

What was measured:
EF-RelQ = biological target: T1, EF-RelQ (Enterococcus faecalis, UniProt Q830U9); settings: allosteric activator; ppGpp synthesis from 1 mM GDP + 1 mM ATP; 2 mM MgCl2; pH 9.0; 37°C
T1 construct: gene EF_2671
Description: AMP formation by anion exchange chromatography, fold change of rate on EF-RelQ

Sm-RelP = biological target: T2, Sm-RelP (Streptococcus mutans, UniProt Q8DUK1); settings: inhibitor; pGpp synthesis from 1 mM GMP + 1 mM ATP; 2 mM MgCl2; pH 9.0; 37°C
T2 construct: gene SMU_926
T2 sequence (Q8DUK1 entry or part of it): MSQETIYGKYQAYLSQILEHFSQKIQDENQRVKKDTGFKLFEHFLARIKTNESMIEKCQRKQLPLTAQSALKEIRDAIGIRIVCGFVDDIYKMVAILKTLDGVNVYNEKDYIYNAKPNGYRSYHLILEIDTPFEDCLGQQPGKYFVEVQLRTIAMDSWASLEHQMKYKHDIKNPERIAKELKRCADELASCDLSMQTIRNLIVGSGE
Description: AMP formation by anion exchange chromatography, fold change of rate on Sm-RelP

Sm-RelQ = biological target: T3, Sm-RelQ (Streptococcus mutans, UniProt Q8DU97); settings: allosteric activator; pGpp synthesis from 1 mM GMP + 1 mM ATP; 2 mM MgCl2; pH 9.0; 37°C
T3 construct: gene SMU_1046c
T3 sequence (Q8DU97 entry or part of it): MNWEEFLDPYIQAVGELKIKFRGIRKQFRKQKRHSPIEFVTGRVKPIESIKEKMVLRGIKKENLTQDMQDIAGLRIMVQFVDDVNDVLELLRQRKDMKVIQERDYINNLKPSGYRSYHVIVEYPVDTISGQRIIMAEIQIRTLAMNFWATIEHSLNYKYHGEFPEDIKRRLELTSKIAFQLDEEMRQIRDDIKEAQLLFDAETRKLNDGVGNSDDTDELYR
Description: AMP formation by anion exchange chromatography, fold change of rate on Sm-RelQ

[1] = test system: Nc1nc2c(ncn2[C@@H]2O[C@H](COP(=O)(O)O)[C@@H](OP(=O)(O)OP(=O)(O)O)[C@H]2O)c(=O)[nH]1; experiment: purified protein; settings: hydrolysis (HD domain), 1 mM MnCl2, 10 mM MgCl2, pH 7.8, 25°C
[2] = test system: Nc1nc2c(ncn2[C@@H]2O[C@H](COP(=O)(O)OP(=O)(O)OP(=O)(O)O)[C@@H](O)[C@H]2O)c(=O)[nH]1; experiment: purified protein; settings: pppGpp synthesis (SYNTH domain), 8 mM ATP, 6 mM MgCl2, pH 7.8, 25°C
[3] = test system: Nc1nc2c(ncn2[C@@H]2O[C@H](COP(=O)(O)OP(=O)(O)O)[C@@H](O)[C@H]2O)c(=O)[nH]1; experiment: purified protein; settings: ppGpp synthesis (SYNTH domain), 8 mM ATP, 6 mM MgCl2, pH 7.8, 25°C
[4] = test system: Nc1nc2c(ncn2[C@@H]2O[C@H](COP(=O)(O)OP(=O)(O)O)[C@@H](OP(=O)(O)OP(=O)(O)O)[C@H]2O)c(=O)[nH]1; experiment: purified protein; settings: hydrolysis (HD domain), 1 mM MnCl2, 10 mM MgCl2, pH 7.8, 25°C
[5] = test system: Nc1nc2c(ncn2[C@@H]2O[C@H](COP(=O)(O)OP(=O)(O)OP(=O)(O)O)[C@@H](OP(=O)(O)OP(=O)(O)O)[C@H]2O)c(=O)[nH]1; experiment: purified protein; settings: hydrolysis (HD domain), 1 mM MnCl2, 10 mM MgCl2, pH 7.8, 25°C
[6] = test system: Nc1nc2c(ncn2[C@@H]2O[C@H](COP(=O)(O)O)[C@@H](O)[C@H]2O)c(=O)[nH]1; experiment: product formation by anion exchange chromatography; format: biochemical, Staphylococcus aureus; settings: pGpp synthesis, 2.5 mM ATP, 5 mM MgCl2, pH 9.0, no added alarmone, 625 ± 165 in the source
Description: (§1) product formation by anion exchange chromatography on Sa-RelP

[7] = test system: Nc1nc2c(ncn2[C@@H]2O[C@H](COP(=O)(O)OP(=O)(O)OP(=O)(O)O)[C@@H](O)[C@H]2O)c(=O)[nH]1; experiment: product formation by anion exchange chromatography; format: biochemical, Staphylococcus aureus; settings: pppGpp synthesis, 2.5 mM ATP, 5 mM MgCl2, pH 9.0, no added alarmone
Description: as §1

[8] = test system: Nc1nc2c(ncn2[C@@H]2O[C@H](COP(=O)(O)OP(=O)(O)O)[C@@H](O)[C@H]2O)c(=O)[nH]1; experiment: product formation by anion exchange chromatography; format: biochemical, Staphylococcus aureus; settings: ppGpp synthesis, 2.5 mM ATP, 5 mM MgCl2, pH 9.0, no added alarmone
Description: as §1

T1 sequence (Q830U9 entry or part of it): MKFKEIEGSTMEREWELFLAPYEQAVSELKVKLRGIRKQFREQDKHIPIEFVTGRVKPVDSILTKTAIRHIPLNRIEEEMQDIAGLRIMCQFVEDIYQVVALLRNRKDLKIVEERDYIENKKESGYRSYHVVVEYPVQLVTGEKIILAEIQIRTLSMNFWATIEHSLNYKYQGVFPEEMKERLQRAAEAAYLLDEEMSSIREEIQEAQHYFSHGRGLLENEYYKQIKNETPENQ

Nc1nc2c(ncn2[C@@H]2O[C@H](COP(=O)(O)OP(=O)(O)O)[C@@H](OP(=O)(O)OP(=O)(O)O)[C@H]2O)c(=O)[nH]1 [ppGpp, guanosine-3’,5’-bis(diphosphate)] was tested, and the “+ 100 μM ppGpp / Fold-change” value (EF-RelQ) was 7.8 ± 0.6 fold.
Nc1nc2c(ncn2[C@@H]2O[C@H](COP(=O)(O)OP(=O)(O)OP(=O)(O)O)[C@@H](OP(=O)(O)OP(=O)(O)O)[C@H]2O)c(=O)[nH]1 [pppGpp, guanosine-5’-triphosphate 3’-diphosphate] was tested, and the “+ 100 μM pppGpp / Fold-change” value (Sm-RelP) was 0.3 ± 0.1 fold and the “+ 100 μM pppGpp / Fold-change” value (Sm-RelQ) was 572 ± 149 fold.
Molecule “Sa-Rel (Staphylococcus aureus subsp. aureus MRSA252)” has a Km [1] of 16.9 ± 2.1 µM, a Vmax [1] of 4.08 µM/min and a kcat [1] of 0.68 s⁻¹. It also gave a kcat/Km [1] of 40000 M⁻¹ s⁻¹, a Km [2] of 114.3 ± 15.7 µM and a Vmax [2] of 3.84 µM/min. The kcat [2] was 0.064 s⁻¹, the kcat/Km [2] was 560 M⁻¹ s⁻¹ and the Km [3] was 434.9 ± 61.2 µM. For the same molecule, the Vmax [3] was 1.08 µM/min, the kcat [3] was 0.018 s⁻¹ and the kcat/Km [3] was 41 M⁻¹ s⁻¹. The Km [4] was 21.7 ± 2.8 µM, the Vmax [4] was 3.6 µM/min and the kcat [4] was 0.6 s⁻¹. For the same molecule, the kcat/Km [4] was 27500 M⁻¹ s⁻¹, the Km [5] was 14.2 ± 1.3 µM and the Vmax [5] was 4.68 µM/min. For the same molecule, the kcat [5] was 0.78 s⁻¹ and the kcat/Km [5] was 55200 M⁻¹ s⁻¹.
Molecule “Sa-RelP (Staphylococcus aureus subsp. aureus NCTC 8325)” has a Km [6] of 625 ± 169 µM, a Vmax [6] of 3.6 µM/min and a kcat [6] of 0.06 ± 0.01 s⁻¹. It also gave a kcat/Km [6] of 90 ± 20 M⁻¹ s⁻¹, a Km [7] of 80 ± 21 µM and a Vmax [7] of 6 µM/min. It also gave a kcat [7] of 0.38 ± 0.03 s⁻¹, a kcat/Km [7] of 4750 ± 1000 M⁻¹ s⁻¹ and a Km [8] of 177 ± 52 µM. It also gave a Vmax [8] of 12 µM/min, a kcat [8] of 0.78 ± 0.08 s⁻¹ and a kcat/Km [8] of 4430 ± 900 M⁻¹ s⁻¹.
